# Reference: the nanobody polyreactivity screen of Harvey et al. (2022)
# Assay: yeast display, Sf9 membrane polyspecificity reagent, FACS + sequencing; frameworks hold sequencing errors
# In short: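 After 36–48 hours of galactose induction, yeast (Saccharomyces cerevisiae BJ5465) displaying a synthetic nanobody library were stained at 4 °C for 1 hour with 10% biotinylated, detergent-solubilized Sf9 membrane reagent. Streptavidin microbeads enriched the stained cells before FACS sorting into low and high (top ~1%) gates on anti-HA and streptavidin fluorescence. Each clone's polyreactivity label reflects its gate of origin.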
sequence,measurement,value
QVQLVESGGGLVQAGGSLRLSCAASGVIFKPSAMGWYRQAPGKERELVASISTGARTYYADSVKGRFTISRDTAKNTVYLQLNSLKPEDTAVYYCAAAYSRWITRYDYWGQGTQVTVSS,polyreactivity (PSR sort gate),high polyreactivity
QVQLVESGGGLVQAGGSLRLICAASGNTFYRNAMGLYRQAPGKERELVAAIDYSAGSTYYADSVKWRFTISRDNAKYSVFFQMKSLNPEDTAVYYCAADARTSRGGRYYYWGQGTQVTVSS,polyreactivity (PSR sort gate),low polyreactivity
QVQLVESGGGLVQAGGSLRLSCAASGLTLYRYTMGWYRQAPGKERELVAGISRGGSTYYADSVKGRFTISRDNAKNTVYLQMNSLKPEDTAVYYCAAYYGGHYYAYSYDYWGQGTQVTVSS,polyreactivity (PSR sort gate),high polyreactivity
QVQHVESGGGLVQAGGSLRLSCAASGGIFYPNAMGWYRQAPGKERELVAAISSGGGSTYYADSVKGRFTISRDNAKNTVYLQMNSLKPEDTSGYYCAASADRLKSDVESDYWGQGTLVTVSS,polyreactivity (PSR sort gate),low polyreactivity
QVQLVESGGGLVQAGGSLRLSCAASGGTFSQYAMGWYRQAPGKERELVATISYSGTSTYYADSVKGRFTISRDNEKNTVYLHMNSLKPEDTAVYDCNIRWRWYRSDYYSWGQGTQVTVSS,polyreactivity (PSR sort gate),high polyreactivity
QVQLVESGGGLVQAGGSLRLSCAASGSTFASNAMGWYRQAPGKERELVAAISKRGGSTYYADSVKGRFTISRDNAKNTVYLQMNSLKPEDTSVYYCNADWTRSQYDYWGQGTQVTVSS,polyreactivity (PSR sort gate),high polyreactivity
QVLLVESGGGLVQAGGSLRLSCAASGSTFFFNAMGSSRQAPGKEWELVATISRDGSTNYADSVKGRFTISRDNAKNTVYLQMNSLKPEDTAVYYCAAGWGWPYHQYDYWGQGTQVTVSS,polyreactivity (PSR sort gate),low polyreactivity
QVQLVESGGGLVQAGGSLRLSCAASGFIFQGYVMGRYRQAPGKVREFVAAISRSGGTTFYADSVKGRFTISRDNAKNPVYLQMNSLKPEDTAVYYCNRAPLGRPGYDYWGPGTQVTVSS,polyreactivity (PSR sort gate),high polyreactivity
QDHLVESWGGLIQAGCSLRISCAASGSITVYNAMGWYRQAPWKERELLAAITGGVTTNYADSVKGRFTISRDNAKTTFYLLMNSLKPEDTAVYYCAKSQIPFGLDSPVDYWGQGTQVNVSS,polyreactivity (PSR sort gate),low polyreactivity
QVQLVESGGGLVQAGGSLRLSCADSVSIFRVNAKRWYTQAPGKERELVAGISSRGGTSTYYADSVKGRFTISRDNAKNTVYLQMNSLKPEDTAVYYCNKTDITTSRHDYWRQGTQVTVSS,polyreactivity (PSR sort gate),low polyreactivity
QVQLVESGGGLVQAGGSLRLSCAASGYTFQYNDMGWYRQAPGKERELVAGISIGGSTNYADSVKGRFTISRDNAKNTVYLQMNSLKPEDTAVYYCAARTLWFPGTTSTSVGSKYGYWGQGTQVSVSS,polyreactivity (PSR sort gate),low polyreactivity
QLQLDESRGGLVQAGRSLRLSCAASGGNFRYYAMGWYRQAPGKERELDAAISSGGSTNYADSVKVRFTISRDNAKNTVYLQMNSLKREDTAVYYCAADVIYYYAYYTYDYWGQGTQVTVSS,polyreactivity (PSR sort gate),low polyreactivity
HVQLVESGGGLVQAGGSLRLSCAASGFSFDPYAMGWYRQAPGKERELVAAISDGGSTNYPDSVKGRFTISRDNAKNTVYLQRNSLKPEDTAVYYCAVEYWYVRGTFDDWGQGTQVTVSS,polyreactivity (PSR sort gate),low polyreactivity
QVQLVESGGGLVQAGGSLRLSCAASGLIFYKYAKGWYRQAPGKERELVAAISRGDNTYYADSVKGRFTISRDNAKNTVYLQMNSLKPEDTAVYYCAAYRWIYQSQYQGYWLDYWGQGTQVTVSS,polyreactivity (PSR sort gate),high polyreactivity
QVQLVESGGGLVQAGGSLRLSCAASGFTVGLYAMGWYRQAPGKERELVAAISGGGSTNYADSVKGRFTISRDNAKNTVYLQMNSLKPEDTAVYYCNKAYHNVYYNWYLRYYSYDYWGQGTQVTGSS,polyreactivity (PSR sort gate),low polyreactivity
QVQLVESGGGLVQAGGSLRLSCAASVGWYRQAPGKERELVAAISFSGGSTYYADSVKGRFTISRDNAKNTVYLQMNSLKPEDTAVYYCAAENFWQTKEYDYWGQGTQVTVSS,polyreactivity (PSR sort gate),low polyreactivity
QVQLVESGGGLVQAGGSLRLSCAASGGTFPLYAMGWYRQAPGKARELVAAIRWSGGRTYYADSVKGRFTISRDNAMKTVYLQMNSLKPEDTAVYYCAADYDDGWGYDYWGQGTQVTVSS,polyreactivity (PSR sort gate),high polyreactivity
QVHLVESGGAFVQAGGSLRLSCAASGRTFGYKAMGWYRQAPVNERELVAAITAGGSTNYADSVKGRFTISRDNAKKTVELQMNRLKPEDTAVYDSAARTYYVPYYYWGQGTQVTVSS,polyreactivity (PSR sort gate),high polyreactivity
QVQLVESGGGLVQAGGSLRLSCAASGSIFRKYTMGWYRQAPGKERELVAAISRIGGSTYYADSVKGRFTISRDNAKNTVYLQMNSLKPEDTAVYYCAKRGPRSYFQPWYDYWGQGTQVTVSS,polyreactivity (PSR sort gate),high polyreactivity
QVQLVESGGGLVQAGGSLRLSCAASGSIFGTNAMGWYRQAPGKERELVAAISLSTGSTYYADSVKGRFTISRDNAKNNVYLQMNSLKPEYTAVYYCAAYYVTPIYYYWGQGSQVTVSS,polyreactivity (PSR sort gate),low polyreactivity
QVQLVESGGGLVQAGGSLRLSCAASGFTFAYIAMGWYRQAPGKERELVAAITVSGGRTYYADTVKGRFTISRDNAKNTVYLQMYSLKPEDTAVYYCAATVRVRTNSWMDYWGQGTQVTVSS,polyreactivity (PSR sort gate),low polyreactivity
QVQLVESGGGLVQAGGSLRLSCAASGSIFPYYAMGWYRQAPGKERELVAGISRRGGTTYYADSVKGRFTISRDNAKNTVYLQMNSLKPEDTAVYYCAARYGPYVDRYGYWGQGTQVTVSS,polyreactivity (PSR sort gate),high polyreactivity
QVQLVESGGGLVQAGGSLRLSCAASGSIFTAYAMGWYRPAPGKERELVAAITSGGSTNYADSVKGRFTISRDNAKNTVYLQMNSLKPEDTAVYYCNADDYWLDSWSSVLWYDYWGQGTQVTVSS,polyreactivity (PSR sort gate),low polyreactivity
QVQLVESGGGLVQAGGSLRLSCADSGSTFDSYAMGWYRQAPGKERELVASITSRGGRTYYADSVKGRFTISRDNAKNTVYLQMNSLKPEDTALYYCNAYRRNYYYYQRHGYWGQGTQVTVSS,polyreactivity (PSR sort gate),high polyreactivity
QVQLVESGGVLVQAGGSLRLSCAASGLTIQTNAMGWYREAPVKERELVAAISRRGSSTYYADSVKGRFTISRDNAKNTVYLQMISLKPEDTAVYYCATGGVLYPYWRGKRYGYWGQGTQVTVSS,polyreactivity (PSR sort gate),high polyreactivity
QVQLVESGGALVQAGGSLRVSCAASGRIFRRNAMGWDRPAPGKERELVAGIDRSGGSTYYADSVKRRFTISRDNGKKTVYIQMNSLKPEDTAVYYCNTRAPYRVKSSGYWGLGTQVTVSS,polyreactivity (PSR sort gate),high polyreactivity
QVQLVESGGGLVQAGGSLRLSCAASGSIFKTYAMGWSRPAPGKERELVAAITSSGGSTYYADSVKGRFTISRDNAKNTVDLQMNSLKPEDTAVYDCAALSGQARRMYYWGQGTQVTVSS,polyreactivity (PSR sort gate),high polyreactivity
QVQLVESGGGLVQAGGSLRLSCAASGRTFRWYAMGWYIQAPGKERELVAAITSGGSTYYADSVKGRFTISRDNAKNTVYLQMNSLKPEDTAVYYCNAVSTSGAFDYWGQGTQVTVSS,polyreactivity (PSR sort gate),high polyreactivity
QVQLVESGGGLVQAGGSLRLSCAASGGIFSRNAMGWSRQAPGKERELVAAISSGGSTYYADSVKGRFTISRDNAKNTVYLQMNTLKPEDTAVYYCAAKRSGQRTLLGYWGQGTQVTVSS,polyreactivity (PSR sort gate),high polyreactivity
QVQLVESGGGLVQAGGSLRLSCAASGITFSVYAMGWYRQAPGKERELVASISSGGTSTYYADSVKGRFTISRDNAKNNVYLQMNSLKTEDSAVYYCAAYSYYTGDQYSYDYWGQGTQVTVSS,polyreactivity (PSR sort gate),low polyreactivity
QVQLVESAGGLVQAGGSLRLSCAASGIIFDDNAKGWYRQAPGKERELVAAISGRGGSTYYADSVKGRFTISRDNAKNTVYLQMNSLKPEDTAVYYCAASTVRRGTAPYSGGGDYWGQGTQVTVSS,polyreactivity (PSR sort gate),high polyreactivity
QVQLVESGGGLVQAGGSLRLSCAASGRIFGSYAMGWYRQAPGKERELVAAITRSGGSTYYADSVKGRFTISRDNAKNTVYLQMNSLKPEDTAVYYCAAYFRFSGSAKFGYWGQGTQVTVSS,polyreactivity (PSR sort gate),high polyreactivity
QFHLVESGGGLVQAGGSLRLSCSASGLTFYQNSLGWSRQAPGKEMELVAAIRWGGGSTYYADSVKGRFTISRDNAKNTVYLQMNCLKPVDTAVYYCAAEYYGWPYDYWGQGTQVTVSS,polyreactivity (PSR sort gate),high polyreactivity
QVQLVESGGGLVQAGGSLRLSCAASGSTFGYYAMGWYRQAPGKERELVAVITRGGSTYYADSVKGRFTISRDNAKNTVYLQMNSLKQEDTAVYYCNARVLAVHYGYWGQGTQVTVSS,polyreactivity (PSR sort gate),high polyreactivity
QVQLVESGGGLVQAGVSLRLSCAASGITIKGNAKGWYRQAPGKERELVAAISRRGGNTYYADSVKGRFTISRDNAKNTVYLQMNSLKPEDTAVYYCAAEYNQSFDYWGQGTQVTVSS,polyreactivity (PSR sort gate),low polyreactivity
QVQLVESGGGLVQAGGSLRLTCAASGLTFGGNAMGWYRQAHRKERELVAAISWSDDTTDYADSVKGRFTISRDNAKNSVYLQMNSLNPEDTAIYYCAARLPFEHVDYWGQGTQVTVSS,polyreactivity (PSR sort gate),low polyreactivity
QVQLVESGGGLVQAGGSLRLSCAASGSIFSNNAMGWYRPAPGKERELVAAITRSGGNTYYADSVKGRFTISRDNAKNTVYLQMNSLKPEDTAVYYCAASNSHVGPNDYWGQGTQVTVSS,polyreactivity (PSR sort gate),high polyreactivity
QVQLVESGGGLVQAGGSLRLSCAASGRIFRSYAMGWYRQAPGKERELVAAISYSGGSTYYADSVKGRFTISRDNAKNTVYLQMNSLKPEDTAVYYCAALPGERKYIYYGYDYWGQGTQVTVSS,polyreactivity (PSR sort gate),high polyreactivity
QVQLVESGGGLVQAGGSLRLSCAASGRTFRYYAMGWYRQAPGKERELVAAITSSGDSTYYADSVKGRFTISRDNAKNTVYLQMNSLKPEDTAVYYCAAGQPLFYDAEYGYWGQGTQVNVSS,polyreactivity (PSR sort gate),low polyreactivity
QVQLVESGGGLVQAGGSLRLSCAASGSIFYKNAMGWYRQAPGKERELVAAITYSGGSTYYADSVKGRFTISRDNAKNTVYLQMNSLKTEDTAVYYCAADIGVYGERREEEYDYWGQGTQVTVSS,polyreactivity (PSR sort gate),low polyreactivity
QVQLVESGGGLVQAGGSLRLSCAASGFTFSRNTMGSSRQAPGKERELVARIPASGGSTYYADSVKGRFTISRDNAKNTVYLLMNSLNPEDTAVYYCAAVYRRYGASRYDYWGQGTQVTVSS,polyreactivity (PSR sort gate),high polyreactivity
QVQLVESGGGLVQAGGSIRLSCAASGSTYGTNTMGWSRQAPGKERELVAGITSGGNTNYADSVKGRFTISRDNAKNTVYLQMNSLKPEDSAVYYCAPRYIYYYAYGYNYWGQGTHVTVSS,polyreactivity (PSR sort gate),high polyreactivity
QVQLVESGGGLVQAGGSLRLSCAASGIIFKYYVMGWYRQAPGKERELVASIRWSGGITSYADSVKGRFTISRDNAKNTVYLQMNSLKPEDTAVYYCAVAHSRLRTAYTFSVQRYDYWGQGTQVTVSS,polyreactivity (PSR sort gate),low polyreactivity
